In patent US20180187272A1:

Biological target: Ste2 GPCR (Saccharomyces cerevisiae) (UniProt D6VTK4)
Test: cell-based or functional assay

Ste2 GPCR (Saccharomyces cerevisiae), sequence (D6VTK4 whole entry): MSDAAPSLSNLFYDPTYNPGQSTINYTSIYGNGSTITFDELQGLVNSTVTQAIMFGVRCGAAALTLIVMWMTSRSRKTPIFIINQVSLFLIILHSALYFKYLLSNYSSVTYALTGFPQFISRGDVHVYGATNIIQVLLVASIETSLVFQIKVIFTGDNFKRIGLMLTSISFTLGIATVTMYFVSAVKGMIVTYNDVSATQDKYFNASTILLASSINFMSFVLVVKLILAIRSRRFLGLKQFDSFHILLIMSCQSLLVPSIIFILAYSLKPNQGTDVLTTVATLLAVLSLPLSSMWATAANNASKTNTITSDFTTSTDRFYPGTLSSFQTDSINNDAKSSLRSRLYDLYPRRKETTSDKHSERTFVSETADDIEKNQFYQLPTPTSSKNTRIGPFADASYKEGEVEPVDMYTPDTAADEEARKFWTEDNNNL

“α-factor (from UniProt P01149 90-102) (peptide)” showed a GFP max (AU), PFig1-GFP(m) of 7570 AU, a GFP max (AU), PFig1-GFP(s) of 2310 AU and a GFP max (AU), PFus1-GFP(m) of 20500 AU. It also gave a GFP max (AU), PFus1-GFP(s) of 4560 AU, a KM (chemical concentration at half maximal signal), GFP reporter PFig1-GFP(m), flow cytometry of 0.02 µM and a KM (chemical concentration at half maximal signal), GFP reporter PFig1-GFP(s), flow cytometry of 0.03 µM. It also gave a KM (chemical concentration at half maximal signal), GFP reporter PFus1-GFP(m), flow cytometry of 0.02 µM and a KM (chemical concentration at half maximal signal), GFP reporter PFus1-GFP(s), flow cytometry of 0.02 µM.
